Measured values published in patent US20080201790.

B1: HA epitope-tagged MEKK3 (expressed in HEK293 cells) (protein)
chain: MGYPYDVPDYASDEQEALDSIMKDLVALQMSRRTRLSGYETMKNKDTGHPNRQSDVRIKFEHNGERRIIAFSRPVRYEDVEHKVTTVFGQPLDLHYMNNELSILLKNQDDLDKAIDILDRSSSMKSLRILLLSQDRNHTSSSPHSGVSRQVRIKPSQSAGDINTIYQAPEPRSRHLSVSSQNPGRSSPPPGYVPERQQHIARQGSYTSINSEGEFIPETSEQCMLDPLSSAENSLSGSCQSLDRSADSPSFRKSQMSRARSFPDNRKECSDRETQLYDKGVKGGTYPRRYHVSVHHKDYNDGRRTFPRIRRHQGNLFTLVPSSRSLSTNGENMGVAVQYLDPRGRLRSADSENALTVQERNVPTKSPSAPINWRRGKLLGQGAFGRVYLCYDVDTGRELASKQVQFDPDSPETSKEVSALECEIQLLKNLQHERIVQYYGCLRDRAEKILTIFMEYMPGGSVKDQLKAYGALTESVTRKYTRQILEGMSYLHSNMIVHRDIKGANILRDSAGNVKLGDFGASKRLQTICMSGTGIRSVTGTPYWMSPEVISGEGYGRKADVWSLGCTVVEMLTEKPPWAEYEAMAAIFKIATQPTNPQLPSHISEHGRDFLRRIFVEARQRPSAEELLTHHFAQLVY
B2: HA epitope-tagged MEKK2 (expressed in HEK293 cells) (protein)
chain: MGYPYDVPDYASDDQQALNSIMQDLAVLHKPVGQHYLYKKPGKQNLHHQKNRMMFESNLNIEEEKRILQVTRPVKLEDLRSKSKIAFGQSMDLHYTNNELVIPLTTQDDLDKAVELLDRSIHMKSLKILLVVNGSTQATNLEPSPSPEDLNNTPLGAERKKRLSVVGPPNRDRSSPPPGYIPDILHQIARNGSFTSINSEGEFIPESMDQMLDPLSLSSPENSGSGSCPSLDSPLDGESYPKSRMPRAQSYPDNHQEFTDYDNPIFEKFGKGGTYPRRYHVSYHHQEYNDGRKTFPRARRTQGTSFRSPVSFSPTDHSLSTSSGSSVFTPEYDDSRIRRRGSDIDNPTLTVTDISPPSRSPRAPTNWRLGKLLGQGAFGRVYLCYDVDTGRELAVKQVQFNPESPETSKEVNALECEIQLLKNLLHERIVQYYGCLRDPQEKTLSIFMELSPGGSIKDQLKAYGALTENVTRKYTRQILEGVHYLHSNMIVHRDIKGANILRDSTGNIKLGDFGASKRLQTICLSGTGMKSVTGTPYWMSPEVISGEGYGRKADIWSVACTVVEMLTEKPPWAEFEAMAAIFKIATQPTNPKLPPHVSDYTRDFLKRIFVEAKLRPSAEELLRHMFVHYH
B3: MEKK1 (protein encoded by p-MEKK1, transiently expressed in COS cells) (protein)
chain: MVTAVPAVFSKLVTMLNASGSTHFTRMRRRLMAIADEVEIAEVIQLGVEDTVDGHQDSLQAVAPTSCLENSSLEHTVHREKTGKGLSATRLSASSEDISDRLAGVSVGLPSSTTTEQPKPAVQTKGRPHSQCLNSSPLSHAQLMFPAPSAPCSSAPSVPDISKHRPQAFVPCKIPSASPQTQRKFSLQFQRNCSEHRDSDQLSPVFTQSRPPPSSNIHRPKPSRPVPGSTSKLGDATKSSMTLDLGSASRCDDSFGGGGNSGNAVIPSDETVFTPVEDKCRLDVNTELNSSIEDLLEASMPSSDTTVTFKSEVAVLSPEKAENDDTYKDDVNHNQKCKEKMEAEEEEALAIAMAMSASQDALPIVPQLQVENGEDIIIIQQDTPETLPGHTKAKQPYREDAEWLKGQQIGLGAFSSCYQAQDVGTGTLMAVKQVTYVRNTSSEQEEVVEALREEIRMMGHLNHPNIIRMLGATCEKSNYNLFIEWMAGGSVAHLLSKYGAFKESVVINYTEQLLRGLSYLHENQIIHRDVKGANLLIDSTGQRLRIADFGAAARLASKGTGAGEFQGQLLGTIAFMAPEVLRGQQYGRSCDVWSVGCAIIEMACAKPPWNAEKHSNHLALIFKIASATTAPSIPSHLSPGLRDVAVRCLELQPQDRPPSRELLKHPVFRTTW

What was measured:
[1] = target: recombinant MEK1 (substrate in Example 2)
[2] = target: recombinant JNKK (substrate in Example 2)
[3] = target: recombinant catalytically inactive MEK-1 (Lys343 to Met, polyhistidine fusion), P31938

Protein	in vitro kinase assay of 12CA5 immunoprecipitates with a recombinant substrate and γ-32P-ATP [1]	in vitro kinase assay of 12CA5 immunoprecipitates with a recombinant substrate and γ-32P-ATP [2]	phosphorylation of catalytically inactive MEK-1 by immunoprecipitated MEKK (γ-32P-ATP, SDS-PAGE, autoradiography) [3]
B1	it did not show measurable kinase activity toward MEK 1 or JNKK	it did not show measurable kinase activity toward MEK 1 or JNKK	
B2	MEKK 2 clearly phosphorylates both MEK 1 and JNKK	MEKK 2 clearly phosphorylates both MEK 1 and JNKK	
B3			MEKK phosphorylated catalytically inactive MEK-1
